Consider one substance from patent publication US20030032582A1.

Some targets named below: TCR Vβ8 (human); TCR Vβ2 (human); TCR Vβ5 (human).
What all share (assay): cell-based or functional assay

On to H-TSST1 (ligand), for which, in the assay with TCR Vβ8 (human), the CD3^+ Blasts Binding Anti-Vβ (%) amounted to 4.6%; the CD3^+ Blasts Binding Anti-Vβ, fold difference versus unstimulated controls is 1.1 fold; the CD3^+ Lymphocytes Binding Anti-Vβ (%) was determined as 4.1%; the CD3^+ Lymphocytes Binding Anti-Vβ, fold difference versus unstimulated controls turned out to be 1 fold. In addition, in the assay with TCR Vβ2 (human), the CD3^+ Blasts Binding Anti-Vβ (%) was 33%; the CD3^+ Blasts Binding Anti-Vβ, fold difference versus unstimulated controls was 3.4 fold; the CD3^+ Lymphocytes Binding Anti-Vβ (%) worked out at 5.1%; the CD3^+ Lymphocytes Binding Anti-Vβ, fold difference versus unstimulated controls was 0.5 fold. For the same substance, in the assay with TCR Vβ5 (human), the CD3^+ Blasts Binding Anti-Vβ (%) is 4.5%; the CD3^+ Blasts Binding Anti-Vβ, fold difference versus unstimulated controls turned out to be 2 fold; the CD3^+ Lymphocytes Binding Anti-Vβ (%) is 2%; the CD3^+ Lymphocytes Binding Anti-Vβ, fold difference versus unstimulated controls came out at 0.9 fold.
